Drawing on patent US20070184022A1, this text covers percent of the report peptide competed for 1 molecule.

The assay addresses T1, H2-Kb molecules in the microsomes of RAW309Cr.1 cells (murine).
T1 chain 1: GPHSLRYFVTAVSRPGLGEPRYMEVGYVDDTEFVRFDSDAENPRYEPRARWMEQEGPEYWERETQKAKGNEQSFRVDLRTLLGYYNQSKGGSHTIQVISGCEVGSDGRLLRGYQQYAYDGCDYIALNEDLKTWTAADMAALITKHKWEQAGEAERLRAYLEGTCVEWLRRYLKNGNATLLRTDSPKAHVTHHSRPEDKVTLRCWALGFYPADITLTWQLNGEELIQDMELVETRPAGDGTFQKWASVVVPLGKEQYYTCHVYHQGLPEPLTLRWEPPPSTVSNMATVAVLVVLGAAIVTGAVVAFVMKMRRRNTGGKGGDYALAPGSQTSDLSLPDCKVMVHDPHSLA
T1 chain 2: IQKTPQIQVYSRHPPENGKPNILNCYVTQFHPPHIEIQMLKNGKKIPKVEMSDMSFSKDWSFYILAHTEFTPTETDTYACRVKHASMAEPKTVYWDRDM
The assay is described as follows: competition against 125I-labelled modified OVA peptide (competitor at the concentration of the report peptide), photo-crosslinking to Kb in microsomes. The conditions noted are these: remark: other sources report otherwise.

B1: native OVA peptide (residues 257-264, SIINFEKL) (peptide)
peptide: SIINFEKL
B1 registered a percent of the report peptide competed of 50%.
